Numbering of substitutions follows the chain as printed. Numbers in names are those of the source. Where “and” joins values, the source holds several entries; their conditions need not be identical. Equal values may be shown once.
B1: felinized clone 101 Fab-SASA variant D104E (VH) (Fab, V domains shown, not shown: small tags and cut ends)
VH: DVQLVESGGDLVKPGGSLRLTCVASGLSLTSSSMSWVRQAPGKGLQWVSTIYSNGGTYYTDSVKGRFTISKDNAENTLYLQMNNLKTEDTATYYCASIYYYDAEYLHWYFDFWGQGALVTVSS
VL: EIQMTQSPTSLSASVGDRVTITCRASEGISNNLSWYQQTPGKAPKLLIYATSNLHSGVPSRFSGSGSGTDFTLTISSLQPEDFATYYCQQGYKWPLTFGGGTKLEITR
B2: felinized clone 101 Fab-SASA variant S35V (VH) (Fab, V domains shown, not shown: small tags and cut ends)
VH: B1 VH with S35V, E104D
VL: B1 VL
B3: felinized clone 101 Fab-SASA variant F112H (VH) (Fab, V domains shown, not shown: small tags and cut ends)
VH: B1 VH with E104D, F112H
VL: B1 VL
B4: felinized clone 101 Fab-SASA variant S30V (VL) (Fab, V domains shown, not shown: small tags and cut ends)
VH: B1 VH with E104D
VL: B1 VL with S30V
B5: felinized clone 101 Fab-SASA variant N31Q (VL) (Fab, V domains shown, not shown: small tags and cut ends)
VH: B1 VH with E104D
VL: B1 VL with N31Q
B6: felinized clone 101 Fab-SASA variant N53I (VL) (Fab, V domains shown, not shown: small tags and cut ends)
VH: B1 VH with E104D
VL: B1 VL with N53I
B7: felinized clone 101 Fab-SASA variant K64E (VH) (Fab, V domains shown, not shown: small tags and cut ends)
VH: B1 VH with K64E, E104D
VL: B1 VL
B8: felinized clone 101 Fab-SASA variant S30P (VL) (Fab, V domains shown, not shown: small tags and cut ends)
VH: B1 VH with E104D
VL: B1 VL with S30P
B9: felinized clone 101 Fab-SASA variant F112N (VH) (Fab, V domains shown, not shown: small tags and cut ends)
VH: B1 VH with E104D, F112N
VL: B1 VL
B10: felinized clone 101 Fab-SASA variant D104Q (VH) (Fab, V domains shown, not shown: small tags and cut ends)
VH: B1 VH with E104Q
VL: B1 VL
B11: felinized clone 101 Fab-SASA variant G55Y (VH) (Fab, V domains shown, not shown: small tags and cut ends)
VH: B1 VH with G55Y, E104D
VL: B1 VL
B12: felinized clone 101 Fab-SASA variant G55R (VH) (Fab, V domains shown, not shown: small tags and cut ends)
VH: B1 VH with G55R, E104D
VL: B1 VL
B13: felinized clone 101 Fab-SASA variant S30Y (VL) (Fab, V domains shown, not shown: small tags and cut ends)
VH: B1 VH with E104D
VL: B1 VL with S30Y
B14: felinized clone 101 Fab-SASA variant N53K (VL) (Fab, V domains shown, not shown: small tags and cut ends)
VH: B1 VH with E104D
VL: B1 VL with N53K
B15: felinized clone 101 Fab-SASA variant F112P (VH) (Fab, V domains shown, not shown: small tags and cut ends)
VH: B1 VH with E104D, F112P
VL: B1 VL
B16: felinized clone 101 Fab-SASA variant D104K (VH) (Fab, V domains shown, not shown: small tags and cut ends)
VH: B1 VH with E104K
VL: B1 VL
B17: felinized clone 101 Fab-SASA variant N53H (VL) (Fab, V domains shown, not shown: small tags and cut ends)
VH: B1 VH with E104D
VL: B1 VL with N53H
B18: felinized clone 101 Fab-SASA variant H55I (VL) (Fab, V domains shown, not shown: small tags and cut ends)
VH: B1 VH with E104D
VL: B1 VL with H55I
B19: felinized clone 101 Fab-SASA variant S30A (VL) (Fab, V domains shown, not shown: small tags and cut ends)
VH: B1 VH with E104D
VL: B1 VL with S30A
B20: felinized clone 101 Fab-SASA variant K64D (VH) (Fab, V domains shown, not shown: small tags and cut ends)
VH: B1 VH with K64D, E104D
VL: B1 VL
B21: felinized clone 101 Fab-SASA variant N53L (VL) (Fab, V domains shown, not shown: small tags and cut ends)
VH: B1 VH with E104D
VL: B1 VL with N53L
B22: felinized clone 101 Fab-SASA variant S34G (VL) (Fab, V domains shown, not shown: small tags and cut ends)
VH: B1 VH with E104D
VL: B1 VL with S34G
B23: felinized clone 101 Fab-SASA variant H55M (VL) (Fab, V domains shown, not shown: small tags and cut ends)
VH: B1 VH with E104D
VL: B1 VL with H55M
B24: felinized clone 101 Fab-SASA variant L54H (VL) (Fab, V domains shown, not shown: small tags and cut ends)
VH: B1 VH with E104D
VL: B1 VL with L54H
B25: felinized clone 101 Fab-SASA variant N53M (VL) (Fab, V domains shown, not shown: small tags and cut ends)
VH: B1 VH with E104D
VL: B1 VL with N53M
B26: felinized clone 101 Fab-SASA variant S30Q (VL) (Fab, V domains shown, not shown: small tags and cut ends)
VH: B1 VH with E104D
VL: B1 VL with S30Q
B27: felinized clone 101 Fab-SASA variant N53V (VL) (Fab, V domains shown, not shown: small tags and cut ends)
VH: B1 VH with E104D
VL: B1 VL with N53V
B28: felinized clone 101 Fab-SASA variant S34A (VL) (Fab, V domains shown, not shown: small tags and cut ends)
VH: B1 VH with E104D
VL: B1 VL with S34A
B29: felinized clone 101 Fab-SASA variant S28H (VH) (Fab, V domains shown, not shown: small tags and cut ends)
VH: B1 VH with S28H, E104D
VL: B1 VL
B30: felinized clone 101 Fab-SASA variant S31H (VH) (Fab, V domains shown, not shown: small tags and cut ends)
VH: B1 VH with S31H, E104D
VL: B1 VL
B31: felinized clone 101 Fab-SASA variant D104N (VH) (Fab, V domains shown, not shown: small tags and cut ends)
VH: B1 VH with E104N
VL: B1 VL
B32: felinized clone 101 Fab-SASA variant S30L (VL) (Fab, V domains shown, not shown: small tags and cut ends)
VH: B1 VH with E104D
VL: B1 VL with S30L
B33: felinized clone 101 Fab-SASA variant R24F (VL) (Fab, V domains shown, not shown: small tags and cut ends)
VH: B1 VH with E104D
VL: B1 VL with R24F
B34: felinized clone 101 Fab-SASA variant H55L (VL) (Fab, V domains shown, not shown: small tags and cut ends)
VH: B1 VH with E104D
VL: B1 VL with H55L
B35: felinized clone 101 Fab-SASA variant F112E (VH) (Fab, V domains shown, not shown: small tags and cut ends)
VH: B1 VH with E104D, F112E
VL: B1 VL

The binders below were run against T1, canine NGF tagged at the C-terminus with the Flag tag (canine, UniProt A0A8I3PYI3 122-241) (assay: SPR off-rate screen, Fab-SASA on BSA chip).
T1 construct: mature; Expressed with baculovirus technology; also called feline NGF (processed form identical)
T1 sequence (A0A8I3PYI3 entry or part of it): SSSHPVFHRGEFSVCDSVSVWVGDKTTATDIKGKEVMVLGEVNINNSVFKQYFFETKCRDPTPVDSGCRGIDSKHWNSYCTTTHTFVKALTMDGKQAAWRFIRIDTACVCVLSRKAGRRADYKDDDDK
With B1 the Kd was 1.8 nM, the “Ratio WT-kd/clone-kd” value was 2.21 and the koff was 0.000426 s⁻¹. It also gave a kon of 237000 M⁻¹ s⁻¹.
B2 was tested, and the Kd was 1.17 nM, the “Ratio WT-kd/clone-kd” value was 2.62 and the koff was 0.00036 s⁻¹. For the same binder, the kon was 309000 M⁻¹ s⁻¹.
With B3 the Kd was 1.95 nM, the “Ratio WT-kd/clone-kd” value was 1.48 and the koff was 0.000639 s⁻¹. It also gave a kon of 328000 M⁻¹ s⁻¹.
In the case of B4, the Kd is reported as 1.68 nM, the “Ratio WT-kd/clone-kd” value is reported as 1.95 and the koff is reported as 0.000483 s⁻¹. The kon was 287000 M⁻¹ s⁻¹.
With B5 the Kd was 1.47 nM, the “Ratio WT-kd/clone-kd” value was 1.96 and the koff was 0.00048 s⁻¹. For the same binder, the kon was 327000 M⁻¹ s⁻¹.
For B6, the Kd was 1.41 nM, the “Ratio WT-kd/clone-kd” value was 2.42 and the koff was 0.000389 s⁻¹. It also gave a kon of 276000 M⁻¹ s⁻¹.
B7 was tested, and the Kd was 2.42 nM, the “Ratio WT-kd/clone-kd” value was 1.98 and the koff was 0.000476 s⁻¹. It also gave a kon of 196000 M⁻¹ s⁻¹.
For B8, the Kd was 2.56 nM, the “Ratio WT-kd/clone-kd” value was 1.41 and the koff was 0.00067 s⁻¹. It also gave a kon of 262000 M⁻¹ s⁻¹.
For B9, the Kd was 1.85 nM, the “Ratio WT-kd/clone-kd” value was 1.47 and the koff was 0.000643 s⁻¹. For the same binder, the kon was 347000 M⁻¹ s⁻¹.
With B10 the Kd was 2.17 nM, the “Ratio WT-kd/clone-kd” value was 1.97 and the koff was 0.000478 s⁻¹. The kon was 220000 M⁻¹ s⁻¹.
B11 was tested, and the Kd was 1.83 nM, the “Ratio WT-kd/clone-kd” value was 2.25 and the koff was 0.000419 s⁻¹. For the same binder, the kon was 229000 M⁻¹ s⁻¹.
For B12, the Kd was 1.23 nM, the “Ratio WT-kd/clone-kd” value was 6.41 and the koff was 0.000147 s⁻¹. For the same binder, the kon was 120000 M⁻¹ s⁻¹.
For B13, the Kd was 2.2 nM, the “Ratio WT-kd/clone-kd” value was 1.21 and the koff was 0.000782 s⁻¹. The kon was 355000 M⁻¹ s⁻¹.
For B14, the Kd was 2.04 nM, the “Ratio WT-kd/clone-kd” value was 1.58 and the koff was 0.000596 s⁻¹. For the same binder, the kon was 292000 M⁻¹ s⁻¹.
B15 was tested, and the Kd was 1.39 nM, the “Ratio WT-kd/clone-kd” value was 1.71 and the koff was 0.000552 s⁻¹. It also gave a kon of 398000 M⁻¹ s⁻¹.
For B16, the Kd was 5.45 nM, the “Ratio WT-kd/clone-kd” value was 2.84 and the koff was 0.000332 s⁻¹. For the same binder, the kon was 60900 M⁻¹ s⁻¹.
B17 was tested, and the Kd was 1.95 nM, the “Ratio WT-kd/clone-kd” value was 1.5 and the koff was 0.000627 s⁻¹. The kon was 322000 M⁻¹ s⁻¹.
B18 was tested, and the Kd was 1.31 nM, the “Ratio WT-kd/clone-kd” value was 2.16 and the koff was 0.000436 s⁻¹. The kon was 334000 M⁻¹ s⁻¹.
In the case of B19, the Kd is reported as 1.05 nM, the “Ratio WT-kd/clone-kd” value is reported as 3.23 and the koff is reported as 0.000292 s⁻¹. It also gave a kon of 277000 M⁻¹ s⁻¹.
In the case of B20, the Kd is reported as 1.63 nM, the “Ratio WT-kd/clone-kd” value is reported as 1.7 and the koff is reported as 0.000554 s⁻¹. For the same binder, the kon was 340000 M⁻¹ s⁻¹.
With B21 the Kd was 2.08 nM, the “Ratio WT-kd/clone-kd” value was 1.41 and the koff was 0.000667 s⁻¹. It also gave a kon of 321000 M⁻¹ s⁻¹.
With B22 the Kd was 1.13 nM, the “Ratio WT-kd/clone-kd” value was 1.83 and the koff was 0.000514 s⁻¹. It also gave a kon of 456000 M⁻¹ s⁻¹.
For B23, the Kd was 0.935 nM, the “Ratio WT-kd/clone-kd” value was 3.02 and the koff was 0.000312 s⁻¹. It also gave a kon of 333000 M⁻¹ s⁻¹.
With B24 the Kd was 1.65 nM, the “Ratio WT-kd/clone-kd” value was 1.68 and the koff was 0.00056 s⁻¹. It also gave a kon of 340000 M⁻¹ s⁻¹.
With B25 the Kd was 1.87 nM, the “Ratio WT-kd/clone-kd” value was 1.46 and the koff was 0.000648 s⁻¹. It also gave a kon of 346000 M⁻¹ s⁻¹.
B26 was tested, and the Kd was 1.25 nM, the “Ratio WT-kd/clone-kd” value was 2.91 and the koff was 0.000324 s⁻¹. The kon was 259000 M⁻¹ s⁻¹.
In the case of B27, the Kd is reported as 1.42 nM, the “Ratio WT-kd/clone-kd” value is reported as 2.32 and the koff is reported as 0.000407 s⁻¹. For the same binder, the kon was 288000 M⁻¹ s⁻¹.
B28 was tested, and the Kd was 1.74 nM, the “Ratio WT-kd/clone-kd” value was 1.2 and the koff was 0.000783 s⁻¹. For the same binder, the kon was 450000 M⁻¹ s⁻¹.
In the case of B29, the Kd is reported as 2.55 nM, the “Ratio WT-kd/clone-kd” value is reported as 1.18 and the koff is reported as 0.000802 s⁻¹. The kon was 315000 M⁻¹ s⁻¹.
For B30, the Kd was 1.98 nM, the “Ratio WT-kd/clone-kd” value was 1.54 and the koff was 0.000612 s⁻¹. For the same binder, the kon was 310000 M⁻¹ s⁻¹.
With B31 the Kd was 1.87 nM, the “Ratio WT-kd/clone-kd” value was 2.11 and the koff was 0.000446 s⁻¹. The kon was 239000 M⁻¹ s⁻¹.
B32 was tested, and the Kd was 1.87 nM, the “Ratio WT-kd/clone-kd” value was 1.86 and the koff was 0.000507 s⁻¹. For the same binder, the kon was 270000 M⁻¹ s⁻¹.
In the case of B33, the Kd is reported as 2.28 nM, the “Ratio WT-kd/clone-kd” value is reported as 1.44 and the koff is reported as 0.000655 s⁻¹. For the same binder, the kon was 287000 M⁻¹ s⁻¹.
B34 was tested, and the Kd was 1.58 nM, the “Ratio WT-kd/clone-kd” value was 2.26 and the koff was 0.000418 s⁻¹. The kon was 264000 M⁻¹ s⁻¹.
B35 was tested, and the Kd was 1.41 nM and 2.41 nM, the koff was 0.000399 s⁻¹ and 0.000708 s⁻¹ and the kon was 284000 M⁻¹ s⁻¹ and 294000 M⁻¹ s⁻¹.

— patent US20250011410A1 (INVETX, published 2025)
